Experimental data: patent publication US10662230B2, “Cyclic RGD cell-binding motif and uses thereof” (Spiber Technologies AB, priority 2015, dated 2020)

How the values were obtained:
integrin α5β1 = biological target: T1, integrin α5β1 (Homo sapiens, UniProt P05556+P08648); assay: Engagement of integrin α5β1 in KC (SNAKA-51/HUTS-4 staining); format: cell-based; conditions: KC adhering for 3 h
T1 construct: endogenous in cells; host or cells: human primary keratinocytes (KC)
Description: Primary antibody were used at the following concentrations in 1% BSA: mouse anti human vinculin (Sigma V9131) at 9.5 μg/ml, mouse-anti human beta1-integrin (activated conformation, clone HUTS-4) at 3.3 μg/mL, or mouse-anti human alpha5-integrin (ligand bound conformation, clone SNAKA-51) at 2.5 μg/mL, both Millipore.
Since the integrin α5β1 is known to selectively bind to fibronectin, we decided to investigate if this integrin is involved in the binding of KC to FNCC-silk (SEQ ID NO: 13). To do this, we selected two monoclonal antibodies, developed to specifically recognize the ligand bound conformation of α5 integrin (SNAKA-51) and the activated conformation of β1 integrin (HUTS-4), respectively, and used them in combination for staining of KC adhering to FNCC-silk for 3 h, in combination with staining with phalloidin for F-actin, as set out in Examples 6-7.

[1] = test system: Normal human epidermal keratinocytes (KC); assay: Cell spreading by F-actin staining, keratinocytes; format: cell-based; conditions: 3 h adhesion
Description: Cells were harvested at passage 3-8, seeded at 3500/cm^2 and allowed to adhere onto films for 20 min, 1 or 3 hours in chamber slides. After gentle washing, cells were fixed with 4% paraformaldehyde, permeabilized with 0.1% Triton X-100 in PBS, and blocked with 1% bovine serum albumin (BSA, AppliChem) in PBS. Secondary antibody was AlexaFlour488 goat anti mouse IgG (H+L), cross adsorbed (Invitrogen), used at 1:500. Phalloidin-AlexaFluor594 (Life Technologies) were used at 1:40 to detect filamentous actin. DAPI was used for nuclear staining. Slides were mounted in Fluorescence mounting medium (Dako, Copenhagen). The stained cells were analyzed using an inverted microscope (Nikon Eclipse Ti) at 4× and 10× magnification. Excitation at 563/45 nm and detection at 625/50 nm was used for red fluorescence, whereas excitation with 387/11 nm and detection at 447/60 nm was used to monitor blue fluorescence. By staining for F-actin, cell spreading and formation of stress fibers in KC after 3 h adhesion were investigated (FIG. 6).

[2] = test system: Human dermal microvascular endothelial cells (EC); assay: Early attachment assay, endothelial cells on silk films; format: cell-based; conditions: 1 h adhesion to film
Description: Human dermal microvascular endothelial cells (EC), (HDMEC, PromoCell GmbH, Germany) isolated from dermis from adult donor were grown in culture flasks coated with gelatin (Sigma Aldrich) in complete endothelial cell media MV, containing 5% fetal bovine serum (PromoCell GmbH, Germany).
(§1) Cells were harvested at passage 3-8, seeded at 20 000/cm^2 and allowed to adhere to the films or controls for 1 h in a cell incubator before gentle washing twice with pre-warmed phosphate buffered saline (PBS) followed by 10 min fixation with 96% ethanol. After three washings in water, cells were stained for 30 min with 0.1% Crystal Violet in H2O. Plates were dried after extensive washing in water.
(§2) Attachment and morphology of cells bound to the films obtained in Example 3 were documented by taking micrographs at 2× and 10× magnification in an inverted bright field microscope. The color was then dissolved in 40 μL 20% acetic acid for 10 min, and 35 μL of the solution was transferred to a 384-well plate for optical density measurement at 595 nm (TECAN Infinite M200). Wells with cells fixed without pre-washing was used as positive control. Wells with no cells were used as blank. Experiments were run in hexaplicates and repeated three times.
First, we wanted to investigate how well adherent cells attach and spread on the FNCC-silk (FNCC-4RepCT, SEQ ID NO: 13) compared to linear RGD proteins (RGD-4RepCT, SEQ ID NO: 16) and WT silk proteins (4RepCT, SEQ ID NO: 2) obtained in Example 3. Silk films of the three different variants were prepared in cell culture plates, and human primary endothelial cells (EC), mesenchymal stem cells (MSC) or keratinocytes (KC) were allowed to adhere for 1 h before fixation and staining.

[3] = test system: dermal keratinocytes (NHEK); assay: Repopulation assay (wound field); format: cell-based, human; conditions: 0.9 mm wound field, 6 days of culture
Description: To evaluate the ability of the different silk variants to support repopulation of an open would field, dermal keratinocytes (NHEK) were stained with Oregon green cell trace (Life Technologies) before seeded onto films of FNCC-silk (SEQ ID NO: 13) and WT-silk (SEQ ID NO: 2) at 20 000 cells/cm^2 in 24 well plates. Wound field inserts (CytoSelect™ Wound healing assay, Cell Biolabs) were added into the wells before cell seeding to generate a 0.9 mm wide open would field in the cell monolayer, while keeping the film intact. After 16 h the inserts were removed, and the repopulation process were followed each day and documented by inverted fluorescence microscopy at day 0 (insert removal), day 2 and 4. At day 6 cells were fixed and stained according to the assay protocol, and imaged by inverted bright field microscopy.
Thus, green-traced cells were seeded at high density into wells with inserts preventing cells to reach a defined part of the silk-film, the “wound field”. After monolayer formation outside the wound field, the insert was removed, and repopulation of the gap was documented during 6 days of culture, thus allowing both migration and proliferation of cells.

[4] = Fabrication of cell culture matrices (fiber, film, foam, free-standing film); format: physicochemical
Description: Briefly, petri dishes were coated at room temperature with recombinant spider silk solution at a concentration of 0.3 mg/ml to generate films. Foams were made by rapid pipetting of the silk solution, and fibers were formed by gentle wagging in 15 ml tube followed by cutting into smaller pieces.
Free-standing films were prepared by applying of a droplet of protein solution (3 mg/ml) onto a ˜3 mm wide frame of metal wire hanging hooked up in a well of a 96-well plate and allowed to dry over night at 25° C. and 30% rh under sterile conditions.
It was observed that a spider silk protein functionalized with a disulfide-looped RGD motif self-assembles into stable matrices. As shown by the micrographs in FIG. 2a, the FNCC-4RepCT (SEQ ID NO: 13) protein could be presented as matrices in the format of fiber (upper), film (middle) and free standing film (lower). Scale bars in FIG. 2a indicate 500 μm (upper & middle) and 1000 μm (lower). […] The smooth film formats (casted and free-standing) were used in the subsequent cell adhesion experiments to rule out the effects of matrix morphology.

[5] = test system: Human mesenchymal stem cells (hMSC); assay: Early attachment assay, mesenchymal stem cells on silk films; format: cell-based; conditions: MSC, 1 h adhesion to film
Description: Human mesenchymal stem cells (hMSC, Gibco) from bone marrow were grown in culture flasks coated with CELLstart (Gibco) in complete StemPro MSC serum free medium CTS (Gibco) containing […] fibroblast growth factor […] (Gibco) and 2 mM Glutamax (Gibco).
as §1
as §2, with “times. […]” for “times.”

T1 sequence (P08648 42-894 limits assumed): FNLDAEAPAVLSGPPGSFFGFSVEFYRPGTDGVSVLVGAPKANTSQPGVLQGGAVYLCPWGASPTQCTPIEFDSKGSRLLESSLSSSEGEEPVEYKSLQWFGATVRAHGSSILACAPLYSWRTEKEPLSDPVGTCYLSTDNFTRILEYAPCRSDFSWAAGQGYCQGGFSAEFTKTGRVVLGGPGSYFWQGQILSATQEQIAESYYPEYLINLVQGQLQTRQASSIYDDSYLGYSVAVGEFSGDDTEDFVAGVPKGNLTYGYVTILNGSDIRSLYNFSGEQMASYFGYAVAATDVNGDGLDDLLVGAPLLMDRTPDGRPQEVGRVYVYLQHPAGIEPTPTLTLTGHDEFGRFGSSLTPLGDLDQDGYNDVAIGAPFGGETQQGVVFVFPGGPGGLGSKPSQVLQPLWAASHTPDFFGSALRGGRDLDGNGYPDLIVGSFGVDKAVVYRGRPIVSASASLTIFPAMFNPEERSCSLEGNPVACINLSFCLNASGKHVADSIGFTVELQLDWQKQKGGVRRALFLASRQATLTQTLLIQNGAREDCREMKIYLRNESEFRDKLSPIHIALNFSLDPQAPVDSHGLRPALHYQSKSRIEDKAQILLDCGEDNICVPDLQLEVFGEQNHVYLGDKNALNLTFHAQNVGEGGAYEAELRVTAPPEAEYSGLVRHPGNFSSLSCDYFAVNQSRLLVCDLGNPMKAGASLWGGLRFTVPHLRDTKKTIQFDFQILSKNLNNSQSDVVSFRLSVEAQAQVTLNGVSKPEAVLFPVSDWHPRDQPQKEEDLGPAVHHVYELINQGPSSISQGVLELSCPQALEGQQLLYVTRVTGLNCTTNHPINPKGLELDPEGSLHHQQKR
T1 sequence (P08648 895-1049 partner limits assumed): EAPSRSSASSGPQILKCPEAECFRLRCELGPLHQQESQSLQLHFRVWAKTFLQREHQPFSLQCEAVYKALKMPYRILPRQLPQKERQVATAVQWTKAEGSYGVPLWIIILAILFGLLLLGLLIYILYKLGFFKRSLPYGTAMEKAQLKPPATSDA
T1 sequence (P05556 21-798): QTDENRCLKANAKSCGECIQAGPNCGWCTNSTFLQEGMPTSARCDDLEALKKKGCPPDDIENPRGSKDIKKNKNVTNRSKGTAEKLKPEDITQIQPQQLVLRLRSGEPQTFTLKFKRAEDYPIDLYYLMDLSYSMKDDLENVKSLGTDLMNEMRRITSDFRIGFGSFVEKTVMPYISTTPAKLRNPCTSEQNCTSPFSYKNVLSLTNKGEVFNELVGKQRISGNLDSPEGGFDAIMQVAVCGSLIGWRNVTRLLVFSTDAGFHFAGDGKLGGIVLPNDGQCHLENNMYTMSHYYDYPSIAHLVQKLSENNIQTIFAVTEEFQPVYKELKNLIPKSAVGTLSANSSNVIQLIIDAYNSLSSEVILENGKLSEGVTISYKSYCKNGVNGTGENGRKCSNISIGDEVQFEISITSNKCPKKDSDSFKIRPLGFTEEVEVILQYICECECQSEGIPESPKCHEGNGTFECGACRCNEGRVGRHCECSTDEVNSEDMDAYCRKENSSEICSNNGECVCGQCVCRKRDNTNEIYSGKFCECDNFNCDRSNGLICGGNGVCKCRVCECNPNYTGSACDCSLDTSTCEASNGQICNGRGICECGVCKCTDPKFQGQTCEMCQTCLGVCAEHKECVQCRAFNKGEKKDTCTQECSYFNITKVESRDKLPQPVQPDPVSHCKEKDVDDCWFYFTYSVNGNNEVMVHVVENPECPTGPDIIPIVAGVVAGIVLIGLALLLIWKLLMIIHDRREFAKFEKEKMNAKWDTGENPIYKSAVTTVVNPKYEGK

B1: FNCC-silk: recombinant spider silk protein 4RepCT with N-terminal cysteine-looped RGD motif CTGRGDSPAC (SEQ ID NO: 10) (protein)
chain: GPNSCTGRGDSPACGSASGQGGYGGLGQGGYGQGAGSSAAAAAAAAAAAAGGQGGQGQGGYGQGSGGSAAAAAAAAAAAAAAAGRGQGGYGQGSGGNAAAAAAAAAAAAAAAGQGGQGGYGRQSQGAGSAAAAAAAAAAAAAAGSGQGGYGGQGQGGYGQSSASASAAASAASTVANSVSRLSSPSAVSRVSSAVSSLVSNGQVNMAALPNIISNISSSVSASAPGASGCEVIVQALLEVITALVQIVSSSSVGYINPSAVNQITNVVANAMAQVMG
modifications: cyclic disulfide loop; Fusion protein; DISULFID (5)..(14)
- staining for ligand bound α5 integrin and activated β1 integrin (integrin α5β1): week but distinct staining pattern resembling the pattern seen when staining for vinculin
- cell morphology (F-actin) [1]: most cells had a nice spread-out morphology with distinct actin filaments
- spreading of KC (total cell area in 4× micrographs) ([1]; seeding 3 500/cm^2): significantly increased compared to FNSS-silk
- spreading of KC (total cell area in 4× micrographs) ([1]; seeding 3 500/cm^2, listed as FNCC): significantly increased spreading of KC compared to RGD-film (p<0.05) and WT-film (p<0.001)
- attachment seen in micrographs ([2]; crystal violet staining): clear improvement of attachment is seen on the FNCC films compared to both RGD and WT
- OD of crystal violet dissolved from adhered cells (number of bound cells) ([2]; seeding 20 000/cm2): significantly more cells had bound to the FNCC-silk after 1 h compared to WT silk
- OD of crystal violet dissolved from adhered cells (number of bound cells) ([2]; seeding 20 000/cm2, listed as FNCC): Significantly more EC had attached to FNCC also compared to RGD silk
- repopulation of the wound field [3]: efficiently repopulated the wound field on FNCC-silk, which was almost completely covered with cells at the end of the experiment
- formation of free-standing films [4]: possible to form free-standing films
- stability and integrity of fibers, film and foam [4]: higher stability and integrity than noted for linear RGD silk proteins (RGD-4RepCT, SEQ ID NO: 16) and WT silk proteins
- attachment seen in micrographs ([5]; crystal violet staining): clear improvement of attachment is seen on the FNCC films compared to both RGD and WT
- OD of crystal violet dissolved from adhered cells (number of bound cells) ([5]; seeding 20 000/cm2, serum-free): significantly more cells had bound to the FNCC-silk after 1 h compared to WT silk
